B1: Furin deletion mutant 578-711 (protein)
chain: QKVFTNTWAVRIPGGPAVANSVARKHGFLNLGQIFGDYYHFWHRGVTKRSLSPHRPRHSRLQREPQVQWLEQQVAKRRTKRDVYQEPTDPKFPQQWYLSGVTQRDLNVKAAWAQGYTGHGIVVSILDDGIEKNHPDLAGNYDPGASFDVNDQDPDPQPRYTQMNDNRHGTRCAGEVAAVANNGVCGVGVAYNARIGGVRMLDGEVTDAVEARSLGLNPNHIHIYSASWGPEDDGKTVDGPARLAEEAFFRGVSQGRGGLGSIFVWASGNGGREHDSCNCDGYTNSIYTLSISSATQFGNVPWYSEACSSTLATTYSSGNQNEKQIVTTDLRQKCTESHTGTSASAPLAAGIIALTLEANKNLTWRDMQHLVVQTSKPAHLNANDWATNGVGRKVSHSYGYGLLDAGAMVALAQNWTTVAPQRKCIIDILTEPKDIGKRLEVRKTVTACLGEPNHITRLEHAQARLTLSYNRRGDLAIHLVSPMGTRSTLLAARPHDYSADGFNDWAFMTTHSWDEDPSGEWVLEIENTSEANNYGTLTKFTLVLYGTAPEGHLPEVVAGLSCAFIVLVFVTVFLVLQLRSGFSFRGVKVYTMDRGLISYKGLPPEAWQEECPSDSEEDEGRGERTAFIKDQSAL
B2: Furin deletion mutant Helix 10 (protein)
chain: QKVFTNTWAVRIPGGPAVANSVARKHGFLNLGQIFGDYYHFWHRGVTKRSLSPHRPRHSRLQREPQVQWLEQQVAKRRTKRDVYQEPTDPKFPQQWYLSGVTQRDLNVKAAWAQGYTGHGIVVSILDDGIEKNHPDLAGNYDPGASFDVNDQDPDPQPRYTQMNDNRHGTRCAGEVAAVANNGVCGVGVAYNARIGGVRMLDGEVTDAVEARSLGLNPNHIHIYSASWGPEDDGKTVDGPARLAEEAFFRGVSQGRGGLGSIFVWASGNGGREHDSCNCDGYTNSIYTLSISSATQFGNVPWYSEACSSTLATTYSSGNQNEKQIVTTDLRQKCTESHTGTSASAPLAAGIIALTLEANKNLTWRDMQHLVVQTSKPAHLNANDWATNGVGRKVSHSYGYGLLDAGAMVALAQNWTTVAPQRKCIIDILTEPKDIGKRLEVRKTVTACLGEPNHITRLEHAQARLTLSYNRRGDLAIHLVSPMGTRSTLLAARPHDYSADGFNDWAFMTTHSWDEDPSGEWVLEIENTSEANNYGTLTKFTLVLYGTAPEGAEMWHQAMEVHLPEVVAGLSCAFIVLVFVTVFLVLQLRSGFSFRGVKVYTMDRGLISYKGLPPEAWQEECPSDSEEDEGRGERTAFIKDQSAL
B3: Furin deletion mutant Loop 10 (protein)
chain: QKVFTNTWAVRIPGGPAVANSVARKHGFLNLGQIFGDYYHFWHRGVTKRSLSPHRPRHSRLQREPQVQWLEQQVAKRRTKRDVYQEPTDPKFPQQWYLSGVTQRDLNVKAAWAQGYTGHGIVVSILDDGIEKNHPDLAGNYDPGASFDVNDQDPDPQPRYTQMNDNRHGTRCAGEVAAVANNGVCGVGVAYNARIGGVRMLDGEVTDAVEARSLGLNPNHIHIYSASWGPEDDGKTVDGPARLAEEAFFRGVSQGRGGLGSIFVWASGNGGREHDSCNCDGYTNSIYTLSISSATQFGNVPWYSEACSSTLATTYSSGNQNEKQIVTTDLRQKCTESHTGTSASAPLAAGIIALTLEANKNLTWRDMQHLVVQTSKPAHLNANDWATNGVGRKVSHSYGYGLLDAGAMVALAQNWTTVAPQRKCIIDILTEPKDIGKRLEVRKTVTACLGEPNHITRLEHAQARLTLSYNRRGDLAIHLVSPMGTRSTLLAARPHDYSADGFNDWAFMTTHSWDEDPSGEWVLEIENTSEANNYGTLTKFTLVLYGTAPEGGSPNSQPYDGHLPEVVAGLSCAFIVLVFVTVFLVLQLRSGFSFRGVKVYTMDRGLISYKGLPPEAWQEECPSDSEEDEGRGERTAFIKDQSAL

Each protein was assayed against recombinant von Willebrand Factor precursor, P04275.
In the case of B1, the “processing of rvWF precursor (Western blot)” value (“processing of rvWF precursor” for short) is reported as “the R683A, Helix 10, Loop 10 and 578-711 furin constructs evidence proteolytic activity”. B2 was tested, and the “processing of rvWF precursor” value was “the R683A, Helix 10, Loop 10 and 578-711 furin constructs evidence proteolytic activity”. With B3 the “processing of rvWF precursor” value was “the R683A, Helix 10, Loop 10 and 578-711 furin constructs evidence proteolytic activity”.

— patent US6596526
